The values that follow come from patent publication US20260216242A1 (ALMAC DISCOVERY, published 2026).

Where a chain is given by its changes, count along the chain named. A value given as a limit tells only on which side of the number the result lay.

A word on the koff: it is a measure of how fast the partners let go of each other. The low end stands for a long-lived complex, the high end for a short-lived complex. What is called kon is the second-order rate constant of association. Read a high kon as fast association.

T1: Human ALPP (leucine zipper) (human)
T1 construct: Whole entry: ALPP fused with a cysteine stabilised leucine zipper and His tag; also called hALPP
T1 chain: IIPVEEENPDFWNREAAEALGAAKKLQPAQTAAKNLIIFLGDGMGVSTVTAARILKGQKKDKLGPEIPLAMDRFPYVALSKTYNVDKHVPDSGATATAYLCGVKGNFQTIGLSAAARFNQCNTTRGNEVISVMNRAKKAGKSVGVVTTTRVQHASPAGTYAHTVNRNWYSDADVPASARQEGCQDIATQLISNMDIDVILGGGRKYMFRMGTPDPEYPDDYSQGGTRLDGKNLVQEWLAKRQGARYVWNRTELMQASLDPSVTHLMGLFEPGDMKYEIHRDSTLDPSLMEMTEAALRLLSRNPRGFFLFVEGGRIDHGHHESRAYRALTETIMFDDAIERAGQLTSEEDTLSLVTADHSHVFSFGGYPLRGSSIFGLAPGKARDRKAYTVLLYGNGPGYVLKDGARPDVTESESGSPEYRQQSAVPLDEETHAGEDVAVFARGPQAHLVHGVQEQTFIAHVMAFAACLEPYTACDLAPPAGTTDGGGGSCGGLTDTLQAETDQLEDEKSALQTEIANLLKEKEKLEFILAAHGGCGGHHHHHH

T2: Human ALPPL2 (leucine zipper) (human)
T2 construct: Whole entry: fused with a cysteine stabilised leucine zipper and His tag; also called hALPPL2
T2 chain: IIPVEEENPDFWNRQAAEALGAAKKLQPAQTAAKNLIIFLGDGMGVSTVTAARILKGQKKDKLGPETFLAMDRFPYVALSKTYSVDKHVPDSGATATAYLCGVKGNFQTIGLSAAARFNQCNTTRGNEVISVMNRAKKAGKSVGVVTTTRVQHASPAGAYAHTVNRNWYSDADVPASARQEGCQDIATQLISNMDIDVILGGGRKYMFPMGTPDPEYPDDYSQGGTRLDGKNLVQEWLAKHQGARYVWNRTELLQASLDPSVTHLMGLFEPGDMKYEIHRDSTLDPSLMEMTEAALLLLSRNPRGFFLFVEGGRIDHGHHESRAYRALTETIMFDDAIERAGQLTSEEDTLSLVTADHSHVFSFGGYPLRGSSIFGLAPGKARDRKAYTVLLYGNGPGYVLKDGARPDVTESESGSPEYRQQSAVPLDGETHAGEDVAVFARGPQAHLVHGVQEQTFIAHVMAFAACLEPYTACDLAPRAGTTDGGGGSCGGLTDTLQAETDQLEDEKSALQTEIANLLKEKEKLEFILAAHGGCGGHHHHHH

T3: ALPI His homodimer (human, UniProt P09923 20-503)
T3 construct: Whole entry with His tag; used in ELISA and BLI; also called hALPI
T3 sequence: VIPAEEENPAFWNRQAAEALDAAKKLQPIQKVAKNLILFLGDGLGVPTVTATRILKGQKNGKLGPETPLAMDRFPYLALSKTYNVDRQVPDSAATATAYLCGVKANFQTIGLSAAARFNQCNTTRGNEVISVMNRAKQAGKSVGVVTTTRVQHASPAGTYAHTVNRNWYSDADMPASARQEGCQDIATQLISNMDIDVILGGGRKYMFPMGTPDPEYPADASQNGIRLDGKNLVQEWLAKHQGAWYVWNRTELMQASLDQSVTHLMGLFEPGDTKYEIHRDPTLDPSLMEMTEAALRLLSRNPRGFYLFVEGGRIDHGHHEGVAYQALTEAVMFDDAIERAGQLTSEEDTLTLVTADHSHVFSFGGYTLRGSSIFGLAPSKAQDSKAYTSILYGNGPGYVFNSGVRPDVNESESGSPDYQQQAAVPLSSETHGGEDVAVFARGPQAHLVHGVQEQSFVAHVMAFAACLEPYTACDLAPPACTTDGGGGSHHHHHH

B1: A05 His (VHH, not shown: small tags and cut ends)
VHH: QVQLVESGGGLVQAGASLTLSCAASGFTFNTRSIVWFRQAPGKEREAVSCISKVAGSTYYGDSVQGRFSSSTDNAKNTVSLQMNSLKPEDTAVYTCAASFAPNCYGWSVAANMEYWGEGTMVTVSS
notes: also called #249
B2: D04 His (VHH, not shown: small tags and cut ends)
VHH: QVQLVESGGGLVQPGGSLRLSCAASESTFSINVMGWYRQAPGKQRELVATITSGDITNYADSVKGRFTISRDNAENTVYLRTNSLKPEDTAVYYCNARGEYHSGNEYDYWGQGTQVTVSS
B3: F08 His (VHH, not shown: small tags and cut ends)
VHH: QVQLVESGGGSVQAGGSLRLSCAASGPSLSNYAMGWFRQAPGKEREFVAGISWGGGRTSYTDSVKGRFTISRDNAKNTVYLQMNNLKPEDTGVYYCAGRYGRGRNVEYEYDYWGQGTQVTVSS
notes: also called #269
B4: D10 His (VHH, not shown: small tags and cut ends)
VHH: QVQLVESGGGLVQPGGSLRLSCAASGSIFSVNTMGWYRQAPGKQRDLVAVATSGGTIHYADSVKGRFTISRDNAKNTVYLQMNSLKPEDTAVYYCNLVVPYGMIAGDHDYWGQGTKVTVSS
B5: E10 His (VHH, not shown: small tags and cut ends)
VHH: QVQLVESGGGLVQAGGSLRLSCAVSGRALSDYNIGWFRQAPGKEREFVARKTWDGSSTRYDDSVKGRFTVSIEDAKNTAYLQMSSLKTEDTAVYYCAAGRYSRARGWEYDYWGQGTQVTVSS
notes: also called #265
B6: F05 His (VHH, not shown: small tags and cut ends)
VHH: B5 VHH with V24A, L29F, S30G, K51R, E73D, D74N, S84N, A104V
B7: A06 His (VHH, not shown: small tags and cut ends)
VHH: QVHLVESGGGLVQAGGSLRLSCAASGRTFLSMGWFRQAPGKEREFVAAISWTGGSTGYADSVKGRFTISRESDKETMYLQMNSLKPEDTAVYYCAARGDVYYGGDDATRYKYWGQGTQVTVSS
notes: also called #250
B8: C07 His (VHH, not shown: small tags and cut ends)
VHH: QVQLVESGGGLVQAGESLRLACAASGTIFSGNAVGWYRQAPEKQREWVSSITDYGDTDYAEAVKGRFTISRDNAKNTVYLQMNSLKPEDTAVYYCYVYQRGESEEYWGQGTQVTVSS
notes: also called #258
B9: E06 His (VHH, not shown: small tags and cut ends)
VHH: QVHLVESGGGLVQAGGSLRLSCAASRRSFSEYAMGWFRQAPGKEREFVAAIGWSGVIEYADSVKGRFTISRDNAKDTVYLQMNSLKPEDTAVYYCAAGLGIRVVSQTPAYWGQGTQVTVSS

One assay deals with T1, Human ALPP (leucine zipper). In words: BLI, antigen immobilised. As to the method:
(§1) Binding kinetics were determined using the Biolayer Interferometry (BLI) Octet K2 system (Sartorius). […] All assays were conducted in PBS with a plate temperature of 25° C. Ka (M⁻¹s⁻¹), Kd (s⁻¹) and KD (nM) values were determined using Octet Data Analysis High Throughput software (ForteBio) for Biolayer Interferometry.
In general terms: BLI is a label-free optical method that tracks binding on a fibre tip over time.
B1 displayed a Kd of less than 0.01 nM, a koff of less than 1e-07 s⁻¹ and a kon of 260000 M⁻¹ s⁻¹.

Regarding B2, the Kd was less than 0.01 nM, the koff was less than 1e-07 s⁻¹ and the kon came out at 85100 M⁻¹ s⁻¹.

On to B3, for which the Kd was less than 0.01 nM, the koff is less than 1e-07 s⁻¹ and the kon was 252000 M⁻¹ s⁻¹.

Regarding B4, the Kd was 0.2 nM, the off-rate (koff) came out at 1.3e-05 s⁻¹ and the kon amounted to 67300 M⁻¹ s⁻¹.

B5 showed a Kd of less than 0.01 nM, a koff of less than 1e-07 s⁻¹ and a kon of 54200 M⁻¹ s⁻¹.

As for B6, the Kd is less than 0.01 nM, the off-rate (koff) was less than 1e-07 s⁻¹ and the kon turned out to be 13900 M⁻¹ s⁻¹.

B7: the Kd was 1.32 nM, the koff is 0.000154 s⁻¹ and the kon turned out to be 117000 M⁻¹ s⁻¹.

Consider B8, for which the Kd is 0.22 nM, the koff was found to be 2.8e-05 s⁻¹ and the kon came out at 129000 M⁻¹ s⁻¹.

Take B9: the Kd is less than 0.01 nM, the koff was less than 1e-07 s⁻¹ and the kon turned out to be 106000 M⁻¹ s⁻¹.

In a further assay the target is T2, Human ALPPL2 (leucine zipper). The experiment in a line: BLI, antigen immobilised. As to the method: as §1
Molecule B2 returned a Kd of 2.92 nM.

In the case of B3, the Kd is less than 0.01 nM, the koff is less than 1e-07 s⁻¹ and the kon came out at 684000 M⁻¹ s⁻¹.

Turning to B4, the Kd was 1.22 nM, the koff amounted to 0.0028 s⁻¹ and the kon worked out at 2.3e+06 M⁻¹ s⁻¹.

With B5, the Kd worked out at 0.0862 nM, the koff is 0.000141 s⁻¹ and the kon came to 1.64e+06 M⁻¹ s⁻¹.

In the case of B6, the Kd came to 0.0954 nM, the koff was 0.000356 s⁻¹ and the kon turned out to be 3.74e+06 M⁻¹ s⁻¹.

B7 registered a Kd of 5.04 nM, a koff of 0.000672 s⁻¹ and a kon of 133000 M⁻¹ s⁻¹.

B8 returned a Kd of 0.61 nM, a koff of 0.000288 s⁻¹ and a kon of 471000 M⁻¹ s⁻¹.

Consider B9, for which the Kd was determined as 0.0834 nM, the koff worked out at 8.75e-05 s⁻¹ and the kon came to 1.05e+06 M⁻¹ s⁻¹.

A further assay concerns the target T4, human ALPP on CHO cells (human, UniProt P05187 23-506).
T4 construct: whole, on cells; also called CHO-ALPP
The experiment in a line: flow cytometry, CHO cells, KDapp. As to the method:
(§2) Cell surface binding of test agents to hALPP isoforms was characterized in four CHO-ALPP isoform stably transfected cell lines (CHO-ALPP, CHO-ALPPL2, CHO-ALPI and CHO-ALPL) and the resulting KDapp values determined. Adherent cells were detached from tissue culture flasks by incubating with 0.1% EDTA/PBS solution at 37° C. for ~10 minutes or until cells detached easily. Cells were re-suspended in ice-cold PBS/2% FCS in 15 ml tubes and centrifuged at 1700 rpm for 5 mins at 4° C. Supernatant was removed and the cell pellet re-suspended in PBS/2% FCS. […] Cells were incubated with 100 μl of test agents at a range of concentrations, plus controls for 1 hr on ice. The sample plate was centrifuged at 1700 rpm for 5 mins at 4° C. The supernatant was removed, and a wash performed by re-suspending the cell pellets in 0.25 mL of ice-cold PBS/2% FCS using a multichannel pipette. Samples were again centrifuged at 1700 rpm for 5 min at 4° C. Supernatant was removed and two further washes performed as described. After the final wash and centrifugation step, excess liquid was removed by blotting the plate on tissue paper. Binding of VHH (His6 tagged) agents was determined by adding 100 μl of anti-x6His tag Ab (Abcam) per cell pellet sample as appropriate and incubating on ice for 30 mins. Wash steps were performed as described previously. Fitc-anti-mouse antibody (ThermoFisher) was used to detect binding of the VHH (His6 tagged) agents by incubating with the appropriate samples for 30 min on ice in the dark. Wash steps were performed as described previously. All cell pellets were finally re-suspended in […] of ice-cold PBS/2% FCS and left on ice in the dark prior to analysis on a Merck-Millipore Guava EasyCyte HT or Thermo Fisher Attune N×T flow cytometer.
B1 gave a Kd of 3.8 nM.

With B2, the Kd turned out to be 4.2 nM.

In turn, B3 gave a Kd of 5 nM.

In the case of B4, the Kd turned out to be 3.4 nM.

B5: the Kd was found to be 3.5 nM.

B6 gave a Kd of 2.3 nM.

As to B7, the Kd stood at 42.4 nM.

In turn, B8 returned a Kd of 3.5 nM.

B9 yielded a Kd of 4.6 nM.

The target of a further assay is T5, human ALPPL2 on CHO cells (human, UniProt P10696 20-503).
T5 construct: whole, on cells; also called CHO-ALPPL2
In words: flow cytometry, CHO cells, KDapp. As to the method: as §2
Background: Flow cytometry measures light scatter and fluorescence of single cells or particles in a stream.
B1: the Kd turned out to be 6 nM.

Molecule B2 showed a Kd of 19.5 nM.

In turn, B3 returned a Kd of 3.3 nM.

As to B5, the Kd came to 3.8 nM.

Turning to B6, the Kd was 1.8 nM.

In turn, B7 showed a Kd of 28.3 nM.

With B8, the Kd amounted to 5.1 nM.

Regarding B9, the Kd came to 4.9 nM.

In a further assay the target is T3, ALPI His homodimer. In words: ELISA, antigen coated. The source says: ELISA was used to test the binding and specificity of the VHHs. […] Anti-Llama—HRP antibody was used for detection.
(In general: An ELISA detects its analyte on a solid surface through an enzyme-linked reagent.)
For B1, the binding result is listed as “no binding (tested: 500 ng VHH)”.

On to B4, for which the binding result is “no binding (tested: 500 ng VHH)”.

Regarding B5, the binding result was “no binding (tested: 500 ng VHH)”.

Consider B6, for which the binding result is “no binding (tested: 500 ng VHH)”.

In the case of B7, the binding result is on record as “no binding (tested: 500 ng VHH)”.

Turning to B8, the binding result is “no binding (tested: 500 ng VHH)”.

In the case of B9, the binding result is listed as “no binding (tested: 500 ng VHH)”.
